Measurements from patent US20180273635A1 (Zymeworks, published 2018).

Assays:
Recombinant human HER2 [1] = molecular target: T1, Recombinant human HER2 (human, UniProt P04626 23-652); assay: SPR, pre-SEC; ratio to WT v10013;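 further: SPR on Biacore T200 at 25 °C, constructs captured via anti-human Fc on CM5 chip, HER2 ECD as analyte, 1:1 Langmuir global fit, after protein A purification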
T1 construct: extracellular domain; analyte of the SPR assays; also called HER2 ECD; ECD2 of HER2

Recombinant human HER2 [2] = molecular target: T1, Recombinant human HER2; assay: SPR, variant captured on anti-human Fc, HER2 flowed, 25 C, pre-SEC;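 further: HER2 extracellular domain binding on Biacore T200, CM5 chip with amine-coupled anti-human Fc, duplicate antigen dilutions, global 1:1 Langmuir fit, measured after protein A purification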

Ka, mut/Ka, WT (Recombinant human HER2 [1])	Kd (Recombinant human HER2 [2])	Binder
0.9	21 nM	variant 12518 (antibody, human IgG1, kappa, also called v12518) heavy: EVQLVESGGGLVQPGGSLRLSCAASGFTFRDYTMDWVRQAPGKGLEWVADVNPNSGRSIYNQRFKGRFTLSVDRSKNTLYLQMNSLRAEDTAVYYCARNLGPSFYFDYWGQGTLVTVSSASTKGPSVFPLAPSSKSTSGGTAALGCLVKDYFPEPVTVSWNSGALTSGVHTFPAVLQSSGLYSLSSVVTVPSSSLGTQTYICNVNHKPSNTKVDKKVEPKSCDKTHTCPPCPAPELLGGPSVFLFPPKPKDTLMISRTPEVTCVVVDVSHEDPEVKFNWYVDGVEVHNAKTKPREEQYNSTYRVVSVLTVLHQDWLNGKEYKCKVSNKALPAPIEKTISKAKGQPREPQVYVYPPSRDELTKNQVSLTCLVKGFYPSDIAVEWESNGQPENNYKTTPPVLDSDGSFALVSKLTVDKSRWQQGNVFSCSVMHEALHNHYTQKSLSLSPG light: not shown not shown
0.2	130 nM	variant 12526 (antibody, human IgG1, kappa, also called v12526) heavy: EVQLVESGGGLVQPGGSLRLSCAASGFTFTDYTMDWVRQAPGKGLEWVADVNPNSGMSYYNQRFKGRFTLSVDRSKNTLYLQMNSLRAEDTAVYYCARNLGPSFYFDYWGQGTLVTVSSASTKGPSVFPLAPSSKSTSGGTAALGCLVKDYFPEPVTVSWNSGALTSGVHTFPAVLQSSGLYSLSSVVTVPSSSLGTQTYICNVNHKPSNTKVDKKVEPKSCDKTHTCPPCPAPELLGGPSVFLFPPKPKDTLMISRTPEVTCVVVDVSHEDPEVKFNWYVDGVEVHNAKTKPREEQYNSTYRVVSVLTVLHQDWLNGKEYKCKVSNKALPAPIEKTISKAKGQPREPQVYVYPPSRDELTKNQVSLTCLVKGFYPSDIAVEWESNGQPENNYKTTPPVLDSDGSFALVSKLTVDKSRWQQGNVFSCSVMHEALHNHYTQKSLSLSPG light: not shown not shown
0.3	57 nM	variant 12537 (antibody, human IgG1, kappa, OA pertuzumab variant, LC Y96M (Kabat); also called v12537) heavy: EVQLVESGGGLVQPGGSLRLSCAASGFTFTDYTMDWVRQAPGKGLEWVADVNPNSGGSIYNQRFKGRFTLSVDRSKNTLYLQMNSLRAEDTAVYYCARNLGPSFYFDYWGQGTLVTVSSASTKGPSVFPLAPSSKSTSGGTAALGCLVKDYFPEPVTVSWNSGALTSGVHTFPAVLQSSGLYSLSSVVTVPSSSLGTQTYICNVNHKPSNTKVDKKVEPKSCDKTHTCPPCPAPELLGGPSVFLFPPKPKDTLMISRTPEVTCVVVDVSHEDPEVKFNWYVDGVEVHNAKTKPREEQYNSTYRVVSVLTVLHQDWLNGKEYKCKVSNKALPAPIEKTISKAKGQPREPQVYVYPPSRDELTKNQVSLTCLVKGFYPSDIAVEWESNGQPENNYKTTPPVLDSDGSFALVSKLTVDKSRWQQGNVFSCSVMHEALHNHYTQKSLSLSPG light: not shown not shown
0.8	23 nM	variant 12535 (antibody, human IgG1, kappa, OA pertuzumab variant, LC Y91N (Kabat); also called v12535) heavy: EVQLVESGGGLVQPGGSLRLSCAASGFTFTDYTMDWVRQAPGKGLEWVADVNPNSGGSIYNQRFKGRFTLSVDRSKNTLYLQMNSLRAEDTAVYYCARNLGPSFYFDYWGQGTLVTVSSASTKGPSVFPLAPSSKSTSGGTAALGCLVKDYFPEPVTVSWNSGALTSGVHTFPAVLQSSGLYSLSSVVTVPSSSLGTQTYICNVNHKPSNTKVDKKVEPKSCDKTHTCPPCPAPELLGGPSVFLFPPKPKDTLMISRTPEVTCVVVDVSHEDPEVKFNWYVDGVEVHNAKTKPREEQYNSTYRVVSVLTVLHQDWLNGKEYKCKVSNKALPAPIEKTISKAKGQPREPQVYVYPPSRDELTKNQVSLTCLVKGFYPSDIAVEWESNGQPENNYKTTPPVLDSDGSFALVSKLTVDKSRWQQGNVFSCSVMHEALHNHYTQKSLSLSPG light: DIQMTQSPSSLSASVGDRVTITCKASQDVSIGVAWYQQKPGKAPKLLIYSASYRYTGVPSRFSGSGSGTDFTLTISSLQPEDFATYYCQQNYIYPYTFGQGTKVEIKRTVAAPSVFIFPPSDEQLKSGTASVVCLLNNFYPREAKVQWKVDNALQSGNSQESVTEQDSKDSTYSLSSTLTLSKADYEKHKVYACEVTHQGLSSPVTKSFNRGEC not shown

Second part, the binder before the results:

Binder	Ka, mut/Ka, WT (Recombinant human HER2 [1])	Kd (Recombinant human HER2 [2])
variant 12499 (antibody, human IgG1, kappa, OA pertuzumab variant, HC S74D (Kabat); also called v12499) heavy: EVQLVESGGGLVQPGGSLRLSCAASGFTFTDYTMDWVRQAPGKGLEWVADVNPNSGGSIYNQRFKGRFTLSVDRDKNTLYLQMNSLRAEDTAVYYCARNLGPSFYFDYWGQGTLVTVSSASTKGPSVFPLAPSSKSTSGGTAALGCLVKDYFPEPVTVSWNSGALTSGVHTFPAVLQSSGLYSLSSVVTVPSSSLGTQTYICNVNHKPSNTKVDKKVEPKSCDKTHTCPPCPAPELLGGPSVFLFPPKPKDTLMISRTPEVTCVVVDVSHEDPEVKFNWYVDGVEVHNAKTKPREEQYNSTYRVVSVLTVLHQDWLNGKEYKCKVSNKALPAPIEKTISKAKGQPREPQVYVYPPSRDELTKNQVSLTCLVKGFYPSDIAVEWESNGQPENNYKTTPPVLDSDGSFALVSKLTVDKSRWQQGNVFSCSVMHEALHNHYTQKSLSLSPG light: not shown not shown	0.3	69 nM
variant 12501 (antibody, human IgG1, kappa, OA pertuzumab variant, HC S74E (Kabat); also called v12501) heavy: EVQLVESGGGLVQPGGSLRLSCAASGFTFTDYTMDWVRQAPGKGLEWVADVNPNSGGSIYNQRFKGRFTLSVDREKNTLYLQMNSLRAEDTAVYYCARNLGPSFYFDYWGQGTLVTVSSASTKGPSVFPLAPSSKSTSGGTAALGCLVKDYFPEPVTVSWNSGALTSGVHTFPAVLQSSGLYSLSSVVTVPSSSLGTQTYICNVNHKPSNTKVDKKVEPKSCDKTHTCPPCPAPELLGGPSVFLFPPKPKDTLMISRTPEVTCVVVDVSHEDPEVKFNWYVDGVEVHNAKTKPREEQYNSTYRVVSVLTVLHQDWLNGKEYKCKVSNKALPAPIEKTISKAKGQPREPQVYVYPPSRDELTKNQVSLTCLVKGFYPSDIAVEWESNGQPENNYKTTPPVLDSDGSFALVSKLTVDKSRWQQGNVFSCSVMHEALHNHYTQKSLSLSPG light: not shown not shown	0.2	85 nM
variant 12515 (antibody, human IgG1, kappa, OA pertuzumab variant, LC T56W (Kabat); also called v12515) heavy: EVQLVESGGGLVQPGGSLRLSCAASGFTFTDYTMDWVRQAPGKGLEWVADVNPNSGGSIYNQRFKGRFTLSVDRSKNTLYLQMNSLRAEDTAVYYCARNLGPSFYFDYWGQGTLVTVSSASTKGPSVFPLAPSSKSTSGGTAALGCLVKDYFPEPVTVSWNSGALTSGVHTFPAVLQSSGLYSLSSVVTVPSSSLGTQTYICNVNHKPSNTKVDKKVEPKSCDKTHTCPPCPAPELLGGPSVFLFPPKPKDTLMISRTPEVTCVVVDVSHEDPEVKFNWYVDGVEVHNAKTKPREEQYNSTYRVVSVLTVLHQDWLNGKEYKCKVSNKALPAPIEKTISKAKGQPREPQVYVYPPSRDELTKNQVSLTCLVKGFYPSDIAVEWESNGQPENNYKTTPPVLDSDGSFALVSKLTVDKSRWQQGNVFSCSVMHEALHNHYTQKSLSLSPG light: DIQMTQSPSSLSASVGDRVTITCKASQDVSIGVAWYQQKPGKAPKLLIYSASYRYWGVPSRFSGSGSGTDFTLTISSLQPEDFATYYCQQYYIYPYTFGQGTKVEIKRTVAAPSVFIFPPSDEQLKSGTASVVCLLNNFYPREAKVQWKVDNALQSGNSQESVTEQDSKDSTYSLSSTLTLSKADYEKHKVYACEVTHQGLSSPVTKSFNRGEC not shown	0.8	26 nM
variant 12500 (antibody, human IgG1, kappa, OA pertuzumab variant, HC S74Y (Kabat); also called v12500) heavy: EVQLVESGGGLVQPGGSLRLSCAASGFTFTDYTMDWVRQAPGKGLEWVADVNPNSGGSIYNQRFKGRFTLSVDRYKNTLYLQMNSLRAEDTAVYYCARNLGPSFYFDYWGQGTLVTVSSASTKGPSVFPLAPSSKSTSGGTAALGCLVKDYFPEPVTVSWNSGALTSGVHTFPAVLQSSGLYSLSSVVTVPSSSLGTQTYICNVNHKPSNTKVDKKVEPKSCDKTHTCPPCPAPELLGGPSVFLFPPKPKDTLMISRTPEVTCVVVDVSHEDPEVKFNWYVDGVEVHNAKTKPREEQYNSTYRVVSVLTVLHQDWLNGKEYKCKVSNKALPAPIEKTISKAKGQPREPQVYVYPPSRDELTKNQVSLTCLVKGFYPSDIAVEWESNGQPENNYKTTPPVLDSDGSFALVSKLTVDKSRWQQGNVFSCSVMHEALHNHYTQKSLSLSPG light: not shown not shown	1	20 nM
